B1: TrpE-YAP65 fusion protein (other)
chain: MQTQKPTLELLTCEGAYRDNPTALFHQLCGDRPATLLLESADIDSKDDLKSLLLVDSALRITALGDTVTIQALSGNGEALLALLDNALPAGVESEQSPNCRVLRFPPVSPLLDEDARLCSLSVFDAFRLLQNLLNVPKEEREAMFFGGLFSYDLVAGFEDLPQLSAENNCPDFCFYLAETLMVIDHQKKSTRIQASLFAPNEEEKQRLTARLNELRQQLTEAAPPLPVVSVPHMRCECNQSDEEFGGVVRLLQKAIRAGEIFQVVPSRRFSLPCPSPLAAYYVLKKSNPSPYMFFMQDNDFTLFGASPESSLKYDATSRQIEIPASLQLGAVSPGTLTPSGVVTGPGAPSSQHLRQSSFEIPDDVPLPPGWEMAKTPSGQRYFLNHIDQTTTWQDPRKAMLSQMNVTAPTSPPVQQNLMNSASAMNQRISQSAPVKQPPPLAPQSPQGGVMGGSSSNQQQQMRLQQLQMEKERLRLKHQELLRQELALRSQLPTMEQDGGSQNPVSSPGMSQELRTMTTNSSDPFLNSGTYHSRDESTDSGLSMSSYSVPRTPDDFLNSVDEMDTGDSISQSNIPSHQNRFPDYLEAIPGTNVDLGTLEGDGMNIEGEELMPSLQEALSSDILNDMES
modifications: 35S-labeled when used as probe

How the values were obtained:
GST alone = GST alone (Schistosoma japonicum (Blood fluke), UniProt P08515 = GST, 32P-labelled when used as probe in Example 5); assay: Western ligand blot on TrpE-YAP65
[1] = target: T1, GST-SH3-Yes fusion protein (Gallus gallus (Chicken), UniProt P09324, 35S-methionine labeled when used as probe); assay: membrane binding assay, radioactively labeled TrpE-YAP65 on blotted GST fusions
Description: (§1) FIG. 5. Binding between YAP65 and Yes in vitro. (A) TrpE-YAP65 fusion protein (2,4,5,6,7) or TrpE alone (1,3) were probed on Western blots with ^35S-methionine labeled GST-Yes-SH3 alone (2) or with radioactive GST-Yes-SH3 supplemented with 10 µM of cold GST-Yes-SH3 (4); Lane 5 is as in lane 2 but the incubation was in the presence of SPLAP peptide (200 µM); lanes 6 and 7, the binding was competed with 50 µM and 200 µM of the PLAP peptide, respectively. The arrow indicates partially purified TrpE-YAP65 fusion protein. Lower migrating protein bands represent products of proteolytic degradation. Even if an increased concentration of protease inhibitors and careful purification protocols were used, we always observed limited degradation of the TrpE-YAP65 protein. Equal amounts (8 µg) of TrpE-fusion protein or TrpE protein were loaded into each lane of the SDS-polyacrylamide gel and transferred to nitrocellulose. […]
To perform reciprocal binding and to estimate the relative specificity of YAP65 binding to other proteins that contain SH3 domains, we probed the purified GST fusion proteins of Nck, Crk, Src, Abl and GAP with radioactively labeled Trp-E-YAP65 protein. The same amount of protein was analyzed in a membrane binding assay; TRPE-YAP-65 bound the strongest to Nck and Yes followed by Crk, and Src. […]

[2] = target: T1, GST-SH3-Yes fusion protein; assay: competition of labeled GST-YES-SH3 binding to blotted TrpE-YAP65 by the scrambled peptide
Description: as §1, with “nitrocellulose. (B) Differential binding of ^35S-labeled TrpE-YAP65 fusion protein to various fusion proteins containing SH3 domains. Before the Western transfer, we had loaded equal amounts (1 µg) of purified proteins into each lane of the SDS gel. An SDS-polyacrylamide gel was run in parallel and stained with Coomassie Blue to confirm equal concentrations of the purified proteins.” for “nitrocellulose.”

Row | Binder | binding result (GST alone) | binding result [1] | binding result [2]
1 | B1 | no binding | binds | 
2 | VQPAQLSIPGPVSPQPKGQSPA [SPLAP peptide] |  |  | no binding (tested: 200 µM)

— US6034212, “SH3 kinase domain associated protein, a signalling domain therein, nucleic acids encoding the protein and the domain, and diagnostic and therapeutic uses thereof” (The Rockefeller University, dated 2000)
